In this assay the target is HIV-1_(JR-FL) Env(−)ΔCT glycoprotein (uncleaved, cytoplasmic tail-truncated envelope glycoprotein precursor) (HIV-1 (isolate JR-FL)). The assay is described as follows: cryo-EM structure.

What is called stoichiometry N is a count of units in the complex or per binding partner. With “HIV-1_(JR-FL) Env(−)ΔCT glycoprotein (uncleaved, cytoplasmic tail-truncated envelope glycoprotein precursor) (natural protein)”, the stoichiometry N is 3.

The values above are taken from article PMC3443289.
